The test system of one test is Decorin. The experiment in a line: BbHtrA proteolysis assay, decorin substrate. The test is classed as biochemical, bovine, human. To be noted: SDS-PAGE, FIG. 5. As for the experimental part: (§1) For proteolysis assays described in Examples herein, purified protein substrates (200-600 nM) and proteases (100-150 nM) were diluted in assay buffer (50 mM HEPES, pH 7.4, 5 mM CaCl2) and incubated overnight at 37° C. Samples were boiled for 4 minutes to inactivate the proteases. Proteoglycans were deglycosylated by overnight incubation at 37° C. with 0.01 U chondroitinase ABC (Seikagaku). Reactions were stopped by the addition of SDS/PAGE sample buffer, boiled for 4 minutes, and electrophoresed on pre-cast Tris-glycine gels (BioRad). Reaction products were visualized by silver staining.
(§2) Purified proteins were incubated with BbHtrA or BbHtrA^S226A as described herein. HtrA (also known as DegP) proteases belong to the family of serine proteases which contain a highly reactive serine residue in their active site. This serine (Ser210 in DegP) is part of the canonical His-Ser-Asp catalytic triad and mutation of the catalytic serine abolishes proteolytic activity (Skorko-Glonek et al., 1995). In BbHtrA, residues His119, Ser226 and Asp149 form the catalytic triad and mutation of serine 226 to alanine abolished proteolytic activity as expected (FIG. 5).
(§3) Reaction products were separated by SDS-PAGE and silver stained. Native collagen II and recombinant tenascin C were not degraded by BbHtrA indicating selectivity for proteoglycans, E-cadherin and fibronectin. […]

A further test deals with Neurocan (Homo sapiens, UniProt O14594). As to the kind of experiment: BbHtrA proteolysis assay, neurocan substrate. As to conditions: SDS-PAGE, FIG. 5. The class given is biochemical. As for the experimental part: as §1, §2, §3
A further test deals with T1, β-casein (Bos taurus, UniProt P02666).
T1 construct: purchased Bio-Rad
T1 sequence (P02666 16-224): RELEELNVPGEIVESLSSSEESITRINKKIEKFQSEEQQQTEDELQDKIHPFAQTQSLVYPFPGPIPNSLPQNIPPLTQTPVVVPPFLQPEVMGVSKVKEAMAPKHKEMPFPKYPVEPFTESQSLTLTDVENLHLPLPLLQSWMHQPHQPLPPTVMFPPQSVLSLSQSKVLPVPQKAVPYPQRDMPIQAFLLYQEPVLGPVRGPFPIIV
The experiment in a line: β-casein zymography. The class given is biochemical. To be noted: 1 μg recombinant protein, 12% β-casein zymogram gel, developed 40 h at 37° C., FIG. 12A. As for the experimental part: Proteolytic activity was studied by zymography of lysates of the prototype strains of each of the major genospecies of Borrelia that cause Lyme disease. Borrelia burgdorferi (passage 4, non-clonal, infectious strain B31), Borrelia garinii (unknown passage, infectious strain FR-20047) and Borrelia afzelii (unknown passage, infectious strain ACA-1) were grown in Barbour-Stoenner-Kelly media (BSK II) supplemented with 6% rabbit serum at 37° C. Borrelial lysates (˜1×10^8 B. garinii, B. afzelii; ˜5×10^7 B. burgdorferi) and recombinant BbHtrA proteins (1 μg) were subjected to SDS-PAGE electrophoresis using 12% β-casein Zymogram Ready Gels (Bio-Rad). Following electrophoresis, the gels were renatured in 2.5% Triton X-100 (Sigma) for 60 min at 37° C. with a buffer change at 15 min. The gels were developed in Zymogram Development Buffer (BioRad) for 40 h at 37° C. with a buffer change at 15 min. Gels were stained (0.5% Coomassie Brilliant Blue R-250, 40% methanol, 10% glacial acetic acid) for 60 min at room temperature and then destained (40% methanol, 10% glacial acetic acid).

The next test concerns Casein. As to the kind of experiment: BbHtrA proteolysis assay, casein substrate. The class given is biochemical, bovine. As to conditions: SDS-PAGE, FIG. 5. As for the experimental part:
as §1, §2, §3

The target in a further test is T2, Collagen type II (Homo sapiens, UniProt P02458).
T2 construct: Native collagen II and recombinant tenascin C were not degraded by BbHtrA; from tissue
As to the kind of experiment: BbHtrA proteolysis assay, collagen type II substrate. The test is classed as biochemical. To be noted: SDS-PAGE, silver stain. As for the experimental part: as §1, §2, §3

The test system of another test is Plasma fibronectin. The experiment in a line: BbHtrA proteolysis assay, plasma fibronectin substrate. The class given is biochemical, human. To be noted: incubated overnight or 96 hours, SDS-PAGE, FIG. 8A. The procedure:
as §1
BbHtrA generates pro-inflammatory amino terminal (Fnf-29) and carboxyl terminal (FnIII13-14) fibronectin fragments. […] Fibronectin was incubated with BbHtrA overnight (FIG. 8A, lane 1) or for 96 hours (FIG. 8A, lane 3). Reaction products were separated electrophoretically, and the bands were excised and analyzed by tandem LC MS/MS, FIG. 8B.

Another test deals with Biglycan. The experiment in a line: BbHtrA proteolysis assay, biglycan substrate. To be noted: SDS-PAGE, FIG. 5. The test is classed as biochemical, bovine, human. As for the experimental part: as §1, §2, §3
In a further test the target is Versican (Homo sapiens, UniProt P13611). As to the kind of experiment: BbHtrA proteolysis assay, versican substrate. The class given is biochemical. To be noted: SDS-PAGE, FIG. 5. The procedure: as §1, §2, §3
The target in a further test is Tenascin C (Homo sapiens, UniProt P24821). The experiment in a line: BbHtrA proteolysis assay, tenascin C substrate. The test is classed as biochemical. As to conditions: SDS-PAGE, silver stain. The procedure:
as §1, §2, §3

The target of the next test is T3, E-cadherin (Homo sapiens, UniProt P12830).
T3 sequence (P12830 155-882): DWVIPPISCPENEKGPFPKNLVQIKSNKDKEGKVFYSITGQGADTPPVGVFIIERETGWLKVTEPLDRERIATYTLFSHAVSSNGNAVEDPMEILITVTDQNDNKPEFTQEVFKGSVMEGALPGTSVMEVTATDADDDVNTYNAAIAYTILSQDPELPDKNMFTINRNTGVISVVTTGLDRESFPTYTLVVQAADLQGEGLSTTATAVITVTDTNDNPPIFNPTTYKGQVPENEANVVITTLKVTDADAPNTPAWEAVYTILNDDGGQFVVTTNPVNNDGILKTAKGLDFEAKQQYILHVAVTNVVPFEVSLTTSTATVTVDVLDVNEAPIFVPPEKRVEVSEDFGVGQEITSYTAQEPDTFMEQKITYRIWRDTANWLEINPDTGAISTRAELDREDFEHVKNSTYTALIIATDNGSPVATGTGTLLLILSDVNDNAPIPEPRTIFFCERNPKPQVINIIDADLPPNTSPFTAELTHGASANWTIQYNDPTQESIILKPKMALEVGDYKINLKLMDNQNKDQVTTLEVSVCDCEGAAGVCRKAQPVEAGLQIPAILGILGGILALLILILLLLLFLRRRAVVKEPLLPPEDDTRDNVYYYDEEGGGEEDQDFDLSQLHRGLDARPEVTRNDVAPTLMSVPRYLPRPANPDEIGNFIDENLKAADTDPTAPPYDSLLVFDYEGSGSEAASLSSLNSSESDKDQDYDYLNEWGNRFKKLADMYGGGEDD
As to the kind of experiment: BbHtrA proteolysis assay, E-cadherin substrate. The test is classed as biochemical. To be noted: SDS-PAGE, FIG. 5. The procedure:
as §1, §2, §3

T2 sequence (P02458 182-1241 limits assumed): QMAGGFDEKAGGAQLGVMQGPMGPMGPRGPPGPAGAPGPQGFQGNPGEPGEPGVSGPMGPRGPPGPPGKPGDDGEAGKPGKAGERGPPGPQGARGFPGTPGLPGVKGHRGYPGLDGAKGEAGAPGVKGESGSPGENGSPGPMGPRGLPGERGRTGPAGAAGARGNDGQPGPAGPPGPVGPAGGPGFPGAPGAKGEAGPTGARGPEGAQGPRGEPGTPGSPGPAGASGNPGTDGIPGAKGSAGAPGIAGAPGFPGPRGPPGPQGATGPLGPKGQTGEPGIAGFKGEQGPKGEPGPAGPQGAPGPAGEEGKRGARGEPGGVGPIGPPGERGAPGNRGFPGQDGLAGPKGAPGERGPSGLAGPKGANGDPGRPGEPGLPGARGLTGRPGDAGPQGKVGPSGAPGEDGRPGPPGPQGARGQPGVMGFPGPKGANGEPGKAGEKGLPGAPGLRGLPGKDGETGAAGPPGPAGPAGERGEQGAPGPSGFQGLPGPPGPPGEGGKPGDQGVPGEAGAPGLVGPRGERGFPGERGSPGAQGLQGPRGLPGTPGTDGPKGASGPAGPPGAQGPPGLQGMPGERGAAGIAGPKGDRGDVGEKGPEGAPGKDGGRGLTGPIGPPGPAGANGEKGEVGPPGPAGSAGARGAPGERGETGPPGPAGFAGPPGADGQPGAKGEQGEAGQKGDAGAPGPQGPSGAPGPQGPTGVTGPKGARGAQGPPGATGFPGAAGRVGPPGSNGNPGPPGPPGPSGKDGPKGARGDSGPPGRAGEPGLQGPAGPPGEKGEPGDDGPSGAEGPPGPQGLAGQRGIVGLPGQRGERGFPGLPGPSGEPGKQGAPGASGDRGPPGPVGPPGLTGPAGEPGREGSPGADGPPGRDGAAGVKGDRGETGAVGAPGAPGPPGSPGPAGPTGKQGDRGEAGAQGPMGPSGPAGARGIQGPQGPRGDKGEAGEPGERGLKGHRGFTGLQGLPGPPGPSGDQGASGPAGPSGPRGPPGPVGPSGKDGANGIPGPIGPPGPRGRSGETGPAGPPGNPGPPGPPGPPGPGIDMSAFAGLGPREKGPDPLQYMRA
Sequence of Versican (P13611 21-3396): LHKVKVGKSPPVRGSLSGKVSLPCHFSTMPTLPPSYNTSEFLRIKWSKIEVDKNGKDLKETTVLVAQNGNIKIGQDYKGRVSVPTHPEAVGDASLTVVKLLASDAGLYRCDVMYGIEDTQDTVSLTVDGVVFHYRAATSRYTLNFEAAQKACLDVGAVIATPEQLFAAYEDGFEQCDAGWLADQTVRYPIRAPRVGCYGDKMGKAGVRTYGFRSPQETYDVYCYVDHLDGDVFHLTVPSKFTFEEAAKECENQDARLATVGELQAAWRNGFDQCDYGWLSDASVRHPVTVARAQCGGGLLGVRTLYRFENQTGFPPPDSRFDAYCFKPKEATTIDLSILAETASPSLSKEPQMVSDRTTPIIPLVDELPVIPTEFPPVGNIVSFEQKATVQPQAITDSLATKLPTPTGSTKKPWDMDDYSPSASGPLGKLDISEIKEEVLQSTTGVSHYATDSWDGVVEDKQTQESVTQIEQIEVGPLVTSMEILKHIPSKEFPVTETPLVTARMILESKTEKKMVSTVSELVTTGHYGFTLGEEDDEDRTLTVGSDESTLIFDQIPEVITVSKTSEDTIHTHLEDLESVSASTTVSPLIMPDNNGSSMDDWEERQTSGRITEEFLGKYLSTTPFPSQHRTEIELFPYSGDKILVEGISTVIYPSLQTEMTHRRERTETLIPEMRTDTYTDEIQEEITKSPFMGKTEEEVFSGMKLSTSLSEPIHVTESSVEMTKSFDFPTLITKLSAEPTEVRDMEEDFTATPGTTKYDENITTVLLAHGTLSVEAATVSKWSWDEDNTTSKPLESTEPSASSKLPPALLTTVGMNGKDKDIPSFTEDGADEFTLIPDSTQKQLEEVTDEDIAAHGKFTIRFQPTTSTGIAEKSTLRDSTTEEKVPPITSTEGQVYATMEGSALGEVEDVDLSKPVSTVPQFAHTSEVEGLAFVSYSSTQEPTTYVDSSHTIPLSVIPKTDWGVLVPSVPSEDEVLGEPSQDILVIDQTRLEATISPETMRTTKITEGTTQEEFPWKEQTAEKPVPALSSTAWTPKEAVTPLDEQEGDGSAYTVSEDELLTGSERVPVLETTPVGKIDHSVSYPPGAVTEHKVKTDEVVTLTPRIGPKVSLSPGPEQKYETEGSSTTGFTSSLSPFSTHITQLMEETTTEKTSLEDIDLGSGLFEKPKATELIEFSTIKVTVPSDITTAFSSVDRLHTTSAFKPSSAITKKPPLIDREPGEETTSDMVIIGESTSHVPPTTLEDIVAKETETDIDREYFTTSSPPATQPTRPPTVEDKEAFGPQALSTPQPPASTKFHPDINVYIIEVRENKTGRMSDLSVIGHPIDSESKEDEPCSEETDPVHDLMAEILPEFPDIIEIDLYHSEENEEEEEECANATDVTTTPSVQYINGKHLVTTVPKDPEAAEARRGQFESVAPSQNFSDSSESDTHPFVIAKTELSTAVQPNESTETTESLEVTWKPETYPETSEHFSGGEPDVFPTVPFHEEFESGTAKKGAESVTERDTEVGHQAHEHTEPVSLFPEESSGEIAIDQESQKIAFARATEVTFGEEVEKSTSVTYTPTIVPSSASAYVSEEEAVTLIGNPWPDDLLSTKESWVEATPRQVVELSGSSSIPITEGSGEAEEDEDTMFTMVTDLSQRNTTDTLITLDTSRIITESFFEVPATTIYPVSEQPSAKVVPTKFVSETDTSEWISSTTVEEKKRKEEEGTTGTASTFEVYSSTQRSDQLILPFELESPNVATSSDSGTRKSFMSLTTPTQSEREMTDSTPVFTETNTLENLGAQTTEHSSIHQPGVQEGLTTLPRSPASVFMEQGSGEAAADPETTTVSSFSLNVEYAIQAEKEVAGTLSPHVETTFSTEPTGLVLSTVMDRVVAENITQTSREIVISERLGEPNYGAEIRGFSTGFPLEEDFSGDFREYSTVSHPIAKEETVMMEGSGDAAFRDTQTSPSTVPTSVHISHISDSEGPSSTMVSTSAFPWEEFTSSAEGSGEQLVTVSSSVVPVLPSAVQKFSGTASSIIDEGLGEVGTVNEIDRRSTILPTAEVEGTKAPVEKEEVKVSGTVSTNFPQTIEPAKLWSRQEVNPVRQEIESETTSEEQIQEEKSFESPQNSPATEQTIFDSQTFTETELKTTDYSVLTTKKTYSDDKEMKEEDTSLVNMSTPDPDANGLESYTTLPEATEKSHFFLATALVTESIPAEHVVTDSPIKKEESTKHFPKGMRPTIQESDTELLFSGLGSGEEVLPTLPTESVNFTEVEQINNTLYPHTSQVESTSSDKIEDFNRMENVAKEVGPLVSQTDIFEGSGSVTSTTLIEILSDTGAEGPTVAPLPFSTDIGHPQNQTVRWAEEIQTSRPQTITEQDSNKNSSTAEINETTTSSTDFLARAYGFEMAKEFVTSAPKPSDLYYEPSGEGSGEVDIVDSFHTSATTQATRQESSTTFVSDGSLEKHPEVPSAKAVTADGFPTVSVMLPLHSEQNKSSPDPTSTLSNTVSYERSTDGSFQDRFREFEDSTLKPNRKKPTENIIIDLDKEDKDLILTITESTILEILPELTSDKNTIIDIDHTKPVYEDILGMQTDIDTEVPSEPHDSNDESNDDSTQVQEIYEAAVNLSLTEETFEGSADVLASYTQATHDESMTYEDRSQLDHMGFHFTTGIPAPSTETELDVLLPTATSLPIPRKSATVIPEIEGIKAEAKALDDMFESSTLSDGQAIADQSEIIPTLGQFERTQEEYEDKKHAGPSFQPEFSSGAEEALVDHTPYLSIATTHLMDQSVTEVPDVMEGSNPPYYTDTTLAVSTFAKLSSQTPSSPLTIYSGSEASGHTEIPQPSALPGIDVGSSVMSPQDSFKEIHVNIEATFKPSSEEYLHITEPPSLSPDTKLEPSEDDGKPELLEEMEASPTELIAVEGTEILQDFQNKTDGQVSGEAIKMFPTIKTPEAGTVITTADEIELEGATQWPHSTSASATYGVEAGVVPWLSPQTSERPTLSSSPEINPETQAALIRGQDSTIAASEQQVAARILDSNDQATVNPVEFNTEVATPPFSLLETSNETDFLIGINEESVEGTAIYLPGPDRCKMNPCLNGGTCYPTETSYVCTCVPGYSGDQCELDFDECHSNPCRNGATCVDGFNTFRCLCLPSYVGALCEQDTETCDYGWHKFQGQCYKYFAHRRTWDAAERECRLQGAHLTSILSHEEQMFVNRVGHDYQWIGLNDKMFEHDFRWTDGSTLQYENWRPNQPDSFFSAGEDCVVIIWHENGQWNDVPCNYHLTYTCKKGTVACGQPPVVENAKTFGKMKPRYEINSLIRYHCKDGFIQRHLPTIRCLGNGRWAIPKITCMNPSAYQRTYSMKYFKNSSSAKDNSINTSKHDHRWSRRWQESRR

B1: BbHtrA: Recombinant wild type B. burgdorferi HtrA serine protease, mature protein amino acids 38-474, expressed in E. coli (SEQ ID NO:1, 9) (protein, listed as Borrelia burgdorferi)
chain: EEKDNTVRALQDSFREVSKKILPSSVEVHATGVIKQSFPIPFFFFDMPEFDSERKSNWAGSGVIIGRDSQKKSLFYVVTNSHVVDKATELEVVSYDKKKHKAKLIGKDEKKDIALISFESDDATIKVADLGDSDKLEIGDWVMAVGSPFQFSFTVTAGIVSGLQRSANPNLQSRNLFIQTDAAINRGNSGGPLVNIKGEVIGINAWIASNSGGNIGLGFAIPVNNIKSTVDFFLKGKKIESAWLGISFYPLKTRDSEVLKSLGVESNDVSAAIIASLYPGSPAVKSGLRAGDIIMKVNGVSMSVFQDVTSYISDFYAGEKVNVEILRGNVKKNIEIVLAVRPKDKELSSSKMLPGFVVYPLVEDIKAQLNLRNWIKGVVVDYIDKNLASNIKMKSGDVILSVNSKSVSNLREFYDALEVGKNTYKILRGNDSFKITF
As to B1, the Degradation of decorin entry with Decorin is given as “degrades”. In addition, the Degradation of neurocan entry with Neurocan is “degrades”. Moreover, the “Proteolytic activity against β-casein (clearing around the protein band)” value with β-casein is “proteolytically active”. For the same molecule, the Degradation of casein result in the test with Casein was “degrades”. The “Degradation of native collagen II” value with Collagen type II is “not degraded”. Besides, in the test with Plasma fibronectin, the Degradation of fibronectin entry is listed as “yielded distinct product bands”. Also, the Degradation of biglycan result in the test on Biglycan is “degrades”. Further, in the test with Versican, the Degradation of versican result is recorded as “degrades”. The “Degradation of recombinant tenascin C” value with Tenascin C is on record as “not degraded”. For the same molecule, the “Degradation of E-cadherin” value in the test with E-cadherin is “degrades”.

The values above are taken from patent publication US9383360B2, “Compositions and methods relating to lyme disease” (The United States of America, as represented by the …, priority 2012, dated 2016).
